The target of test [1] is T1, FLAG-HPV6 E6 (HPV6, UniProt P06462 1-150).
T1 construct: Flag-E6 fusion protein from transfected 293T cell lysate, captured on a coated flag antibody
T1 chain: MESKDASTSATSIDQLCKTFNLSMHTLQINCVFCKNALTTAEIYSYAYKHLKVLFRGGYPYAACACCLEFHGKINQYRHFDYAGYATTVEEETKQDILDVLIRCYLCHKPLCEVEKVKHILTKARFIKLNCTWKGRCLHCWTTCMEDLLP
As to the kind of experiment: sandwich ELISA: flag antibody capture of Flag-E6 from 293T lysate, A4F9 supernatant 1:1.

In test [2] the target is T2, FLAG-HPV68 E6 (HPV68).
T2 construct: Flag-E6 fusion protein from transfected 293T cell lysate, captured on a coated flag antibody
The test is described as above.

In test [3] the target is T3, FLAG-HPV11 E6 (HPV11, UniProt P04019 1-150).
T3 construct: Flag-E6 fusion protein from transfected 293T cell lysate, captured on a coated flag antibody
T3 sequence: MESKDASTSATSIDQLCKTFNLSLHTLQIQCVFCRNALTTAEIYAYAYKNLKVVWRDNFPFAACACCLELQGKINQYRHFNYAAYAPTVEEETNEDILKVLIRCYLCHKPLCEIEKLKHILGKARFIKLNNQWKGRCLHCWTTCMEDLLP
The description is as above.

Test [4] has as its target T1, FLAG-HPV6 E6. Briefly: sandwich ELISA: flag antibody capture of 293T lysate, A4F9 supernatant 1:1. (In an ELISA, binding on a coated surface is turned into a signal by an enzyme label.)
Test [5] addresses T3, FLAG-HPV11 E6. The test is described as above.
In test [6] the target is T4, Flag-HPV16 E6 (HPV16, UniProt P03126 1-158).
T4 chain: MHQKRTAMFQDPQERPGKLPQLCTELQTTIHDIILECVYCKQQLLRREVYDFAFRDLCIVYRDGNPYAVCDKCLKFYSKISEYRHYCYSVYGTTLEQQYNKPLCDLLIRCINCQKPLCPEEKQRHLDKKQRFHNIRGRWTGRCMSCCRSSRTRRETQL
Briefly: sandwich ELISA: flag antibody capture of 293T lysate (fresh or liquid-based fixed).

Test [7] addresses T5, FLAG-HPV18 E6 (HPV18, UniProt P06463 1-158).
T5 construct: Flag-E6 fusion protein from transfected 293T cell lysate, captured on a coated flag antibody; also called 可溶性蛋白HPV18 E6
Described as above.

Test [8] has as its target T6, HPV16 E6蛋白 (宫颈癌细胞株CaSki细胞内源表达) (HPV16, UniProt P03126 1-158).
T6 construct: whole, on cells; Intracellular protein in fixed cells (95% ethanol, EDTA heat retrieval), stained by immunocytochemistry; also called CaSki阳性标准对照细胞
Briefly: immunocytochemistry on fixed CaSki cells, DAB.

Test [9] concerns the target T1, FLAG-HPV6 E6. As to the kind of experiment: sandwich ELISA; (HPV OD450 - 293T negative control)/HPV16 OD450, HPV16 E6 = 100%.
Test [10] concerns the target T2, FLAG-HPV68 E6. The test is described as above.
Test [11] deals with T3, FLAG-HPV11 E6. Described as above.
For test [12], the target named is T7, HPV18 E6蛋白 (宫颈癌细胞株Hela细胞内源表达) (HPV18, UniProt P06463 1-158, limits assumed).
T7 construct: whole, on cells; Intracellular protein in fixed cells, stained by immunocytochemistry; HeLa cells were mixed into a pool of negative clinical samples
T7 sequence (P06463 whole entry): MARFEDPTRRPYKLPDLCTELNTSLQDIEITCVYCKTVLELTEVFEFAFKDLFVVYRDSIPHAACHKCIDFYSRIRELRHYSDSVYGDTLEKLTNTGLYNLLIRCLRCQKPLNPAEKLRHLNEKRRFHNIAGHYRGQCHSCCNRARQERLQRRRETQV
As to the kind of experiment: immunocytochemistry on fixed HeLa cells mixed with a negative clinical pool, DAB.

T5 sequence (P06463 whole entry, the tested form may be a part): as the sequence (P06463 whole entry) above

B1: 抗HPV E6兔源单克隆抗体 A4F9 (antibody, V domains shown)
VH: QEQLVESGGGLVQPEGSLTLTCTASGFSFSSSYWICWVRQAPGKGLEWIACIYSGDGDAYYASWAKGRFTISKTSSTTVTLQMTSLTAADTAAYFCARDRVYDSSSGHGLWGPGTLVTVSS
VL: DIVMTQTPFSVSAAAGGTVTINCQASENIYSNLAWYQQKPGQRPKLLIYGTSDLPSGVPSRFSGSGYGTEFTLTISDLECADAATYYCQSYYYRSSSAYGWDFGGGTEVVVK
notes: Rabbit monoclonal from single B cell cloning, tested as clone supernatant (rabbit IgG, detected with goat anti-rabbit-HRP); also called 克隆上清A4F9; A4F9克隆
With B1, the OD450 in test [1] was 0.1; in test [2], 0.5; in test [3], 0.1. Besides, the binding result in test [4] is given as “no binding”; in test [5], “no binding”; in test [6], “binds”; in test [7], “binds”; in test [8], “binds”; in test [12], “binds”. Further, the “%交叉活性” value in test [9] was -6.3%; in [10] it was 6.3%; in test [11], -5.2%.

(Values after patent publication CN116410306A (ATTOGEN BIOMEDICAL SUZHOU INC LTD, dated 2023).)
